Source: IntAct's records for PubMed 31631010

B1: Palmitoyltransferase ZDHHC5 (Mus musculus), Q8VDZ4 (parent)
chain: MPAESGKRFKPSKYVPVSAAAIFLVGATTLFFAFTCPGLSLNVSPAVPIYNAIMFLFVLANFSMATFMDPGIFPRAEEDEDKEDDFRAPLYKTVEIKGIQVRMKWCATCRFYRPPRCSHCSVCDNCVEEFDHHCPWVNNCIGRRNYRYFFLFLLSLTAHIMGVFGFGLLYVLYHIEELSGVRTAVTMAVMCVAGLFFIPVAGLTGFHVVLVARGRTTNEQVTGKFRGGVNPFTNGCCNNVSRVLCSSPAPRYLGRPKKEKTIVIRPPFLRPEVSDGQITVKIMDNGIQGELRRTKSKGSLEITESQSADAEPPPPPKPDLSRYTGLRTHLSLATNEDSSLLGKDSPPTPTMYKYRPGYSSSSTSAAMPHSSSAKLSRGDSLKEPTSIADSSRHPSYRSEPSLEPESFRSPTFGKSFHFDPLSSGSRSSSLKSAQGTGFELGQLQSIRSEGTTSTSYKSLANQTRNGSLSYDSLLTPSDSPDFESVQAGPEPDPPLGYTSPFLSARLAQQREAERHPRLLPTGPPHREPSPVRYDNLSRHIVASLQEREKLLRQSPPLAGREEEPGLGDSGIQSTPGSGHAPRTSSSSDDSKRSPLSKTPLGRPAVPRFGKPDGLRSRGLGSPEPGTTAPYLGRSISYSSQKAPSGVSETEEVALQPLLTPKDEVQLKTTYSKSNGQPKSIGSASPGPGQPPLSSPTRGGVKKVSGVGGTTYEISV

Variants of: B1
Details: with goga7_human GOLGA7, Q7Z5G4

Row | effect of a mutation on the interaction | Variant
1 | disrupting interaction strength | C236S;C237S;C245S
2 | with no effect | C134S
